Assay results reported in publication PMC3413214, “Structural and biochemical characterization of a trapped coenzyme A adduct of Caenorhabditis elegans glucosamine-6-phosphate N-acetyltransferase 1” (Acta Crystallographica Section D: Biological Crystallography, 2012).

Assays:
[1] = biological target: the molecule itself; assay: SEC; Superdex 75 26/60 gel-filtration column in buffer A (25 mM Tris-HCl pH 7.5, 250 mM NaCl, 2 mM EDTA); elution profile
[2] = biological target: the molecule itself; assay: crystal structure; sitting-drop vapour diffusion, 0.1 M Tris-HCl pH 8.5, 0.2 M sodium acetate, 30% PEG 3350, 11 mM BaCl2, 293 K; orthorhombic P2_1 2_1 2_1 form (1.75 Å, CoA and GlcNAc-6P bound) and hexagonal P6_1 form (1.55 Å, Cys141-CoA adduct); two subunits A and B in each

B1: Caenorhabditis elegans glucosamine-6-phosphate N-acetyltransferase 1 (enzyme, UniProt Q17427 1-165, looked up)
chain: MSHIFDASVLAPHIPSNLPDNFKVRPLAKDDFSKGYVDLLSQLTSVGNLDQEAFEKRFEAMRTSVPNYHIVVIEDSNSQKVVASASLVVEMKFIHGAGSRGRVEDVVVDTEMRRQKLGAVLLKTLVSLGKSLGVYKISLECVPELLPFYSQFGFQDDCNFMTQRF
notes: glucosamine-6-phosphate N-acetyltransferase 1 (GNA1) of Caenorhabditis elegans, full length, 165 amino acids per monomer; amplified from C. elegans cosmid B0024 DNA; Cloned into pGEX-6P-1 by BamHI and EcoRI; a few vector residues probably remain at the N-terminus after PreScission cleavage (surmised); In the orthorhombic crystal it holds CoA and GlcNAc-6P non-covalently; also called CeGNA1; GNA1; …
[1]
  stoichiometry N: 2

B2: CeGNA1–Cys–CoA adduct (enzyme, Caenorhabditis elegans, UniProt Q17427 1-165, looked up)
chain: B1 chain
modifications: Cys141 linked by a disulfide to coenzyme A
notes: glucosamine-6-phosphate N-acetyltransferase 1 (GNA1) of Caenorhabditis elegans, full length, 165 amino acids per monomer; same construct as m1; Same polypeptide as m1; differs only by the covalent CoA on Cys141, which DTT releases; also called CeGNA1–CoA adduct; covalent CoA complex; source: E. coli BL21 (DE3) pLysS, purified; adduct formed in the hexagonal (P6_1) crystals grown with acetyl-CoA, …
[2]
  binding result: binds
